Molecular target: human plasma-derived Factor IXa (human, UniProt P00740 47-191; P00740 227-461)
Experiment: cell-based or functional assay

Sequence of human plasma-derived Factor IXa (P00740 47-191, chain 1 of 2): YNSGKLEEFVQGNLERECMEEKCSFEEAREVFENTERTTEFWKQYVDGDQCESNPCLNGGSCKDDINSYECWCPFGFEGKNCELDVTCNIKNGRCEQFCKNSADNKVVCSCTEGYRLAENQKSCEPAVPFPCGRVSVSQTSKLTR
Sequence of human plasma-derived Factor IXa (P00740 227-461, chain 2 of 2): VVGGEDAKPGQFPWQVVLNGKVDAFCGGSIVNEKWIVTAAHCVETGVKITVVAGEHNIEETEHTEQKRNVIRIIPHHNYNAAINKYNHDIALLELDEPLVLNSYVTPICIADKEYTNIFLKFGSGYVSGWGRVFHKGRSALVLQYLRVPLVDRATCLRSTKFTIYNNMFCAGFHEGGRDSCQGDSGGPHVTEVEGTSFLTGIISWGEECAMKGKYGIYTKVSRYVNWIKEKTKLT

Row | Binder | Stimulation Index, FXa generation assay, 800 nM OA antibody [fold] | Stimulation Index, FXa generation assay, 1600 nM OA antibody [fold]
1 | one-armed (OA) mAb01-9986 (antibody, V domains shown) VH: EVQLVESGGGLVQPGRSLRLSCAASGFTFHDYAMHWVRQVPGKGLEWVSGISWRGDIGGYVKSVKGRFTISRDNAKNSLYLQMNSLRAEDTALYYCVKSYGSGSFYNAFDSWGQGTLVTVSS VL: DIQMTQSPSTLSASVGDRVTITCRASQSISSWLAWYQQKPGKAPKFLIYKASRLERGTPSRFSGSGSGTEFSLTISSLQPDDFATYYCLEYSSYIRTFGQGTKVEIK | 5820 | –
2 | one-armed (OA) mAb11-0931 (antibody, V domains shown) VH: EVQLVESGGGLVQPGRSLRLSCAASGFTFHDYAMHWVRQVPGKGLEWVSGISWKGDIGGYVDSVKGRFTISRDNEKNSLYLQMNSLRAEDTALYYCVKSYGSGSFYNAFDSWGQGTLVTVSS VL: DIQMTQSPSTLSASVGDRVTITCRASQSISSWLAWYQQKPGKAPKFLIYKASRLDRGLPSRFSGSGSGTEFSLTISSLQPDDFATYYCLEYSSYIRTFGQGTKVEIK | 1880 | –
3 | one-armed (OA) mAb11-0933 (antibody, V domains shown) VH: EVQLVESGGGLVQPGRSLRLSCAASGFTFHDYAMHWVRQVPGKGLEWVSGISWKGDIGGYVDSVKGRFTISRDNEKNSLYLQMNSLRAEDTALYYCVKSYGSGSFYNAFDSWGQGTLVTVSS VL: DIQMTQSPSTLSASVGDRVTITCRASQSISSWLAWYQQKPGKAPKFLIYKASRLDRGNPSRFSGSGSGTEFSLTISSLQPDDFATYYCLEYSSYIRTFGQGTKVEIK | 1610 | –
4 | one-armed (OA) mAb11-0174 (antibody, V domains shown) VH: EVQLVESGGGLVQPGRSLKLSCAASGFTFHDYAMHWVRQAPGKGLEWVSGISWKGDIGGYVDSVKGRFTISRDNAKNSLYLQMNSLRAEDTALYYCAKSYGSGSFYNAFDSWGQGTLVTVSS VL: DIQMTQSPSTLSASVGDRVTITCRASQSISSWLAWYQQKPGKAPKFLIYKASKLDRGTPSRFSGSGSGTEFTLTISSLQPDDFATYYCLEYSSYIRTFGQGTKVEIK | 3690 | –
5 | one-armed (OA) mAb11-0923 (antibody, V domains shown) VH: EVQLVESGGGLVQPGRSLRLSCAASGFTFHDYAMHWVRQVPGKGLEWVSGISWKGDIGGYVDSVKGRFTISRDNEKNSLYLQMNSLRAEDTALYYCVKSYGSGSFYNAFDSWGQGTLVTVSS VL: DIQMTQSPSTLSASVGDRVTITCRASQSISSWLAWYQQKPGKAPKFLIYKASRLDRGCPSRFSGSGSGTEFSLTISSLQPDDFATYYCLEYSSYIRTFGQGTKVEIK | 2820 | –
6 | one-armed (OA) mAb11-0149 (antibody, V domains shown) VH: EVQLVESGGGLVQPGRSLKLSCAASGFTFDDYAMHWVRQAPGKGLEWVSGISWKGDIGGYVDSVKGRFTISRDNAKNSLYLQMNSLRAEDTALYYCVKSYGSGSFYNAFDSWGQGTLVTVSS VL: DIQMTQSPSTLSASAGDEVTITCRASQSIKSWLAWYQQKPGKAPKFLIYKASRLDRGTPQRFSGSGSGTEFSLTISRLQPDDFATYYCLEYSSYIRTFGQGTKVEIK | 3320 | –
7 | one-armed (OA) mAb11-0173 (antibody, V domains shown) VH: EVQLVESGGGLVQPGRSLRLSCAASGFTFHDYAMHWVRQAPGKGLEWVSGISWKGDIGGYVDSVKGRFTISRDNAKNSLYLQMNSLRAEDTALYYCAKSYGSGSFYNAFDSWGQGTLVTVSS VL: DIQMTQSPSTLSASVGDRVTITCRASQSISSWLAWYQQKPGKAPKFLIYKASKLDRGTPSRFSGSGSGTEFTLTISSLQPDDFATYYCLEYSSYIRTFGQGTKVEIK | – | 8480
8 | one-armed (OA) mAb11-0932 (antibody, V domains shown) VH: EVQLVESGGGLVQPGRSLRLSCAASGFTFHDYAMHWVRQVPGKGLEWVSGISWKGDIGGYVDSVKGRFTISRDNEKNSLYLQMNSLRAEDTALYYCVKSYGSGSFYNAFDSWGQGTLVTVSS VL: DIQMTQSPSTLSASVGDRVTITCRASQSISSWLAWYQQKPGKAPKFLIYKASRLDRGMPSRFSGSGSGTEFSLTISSLQPDDFATYYCLEYSSYIRTFGQGTKVEIK | 1690 | –
9 | one-armed (OA) mAb11-0929 (antibody, V domains shown) VH: EVQLVESGGGLVQPGRSLRLSCAASGFTFHDYAMHWVRQVPGKGLEWVSGISWKGDIGGYVDSVKGRFTISRDNEKNSLYLQMNSLRAEDTALYYCVKSYGSGSFYNAFDSWGQGTLVTVSS VL: DIQMTQSPSTLSASVGDRVTITCRASQSISSWLAWYQQKPGKAPKFLIYKASRLDRGIPSRFSGSGSGTEFSLTISSLQPDDFATYYCLEYSSYIRTFGQGTKVEIK | 1560 | –
10 | one-armed (OA) mAb01-9016 (antibody, V domains shown) VH: EVQLVESGGGLVQPGRSLKLSCAASGFTFDDYAMHWVRQVPGKGLEWVSGISWRGDIGGYVDSVKGRFTISRDNAKNSLYLQLNSLRAEDTALYYCVKSYGSGSFYNAFDSWGQGTLVTVSS VL: DIQMTQSPSTLSASAGDRVTITCRASQSISSWLAWYQQKPGKAPKFLIYKASRLERGVPSRFSGSGSGTEFSLTISSLQPDDFATYYCLEYSSYIRTFGQGTKVEIK | – | 5900
11 | one-armed (OA) mAb11-0939 (antibody, V domains shown) VH: EVQLVESGGGLVQPGRSLRLSCAASGFTFHDYAMHWVRQVPGKGLEWVSGISWKGDIGGYVDSVKGRFTISRDNEKNSLYLQMNSLRAEDTALYYCVKSYGSGSFYNAFDSWGQGTLVTVSS VL: DIQMTQSPSTLSASVGDRVTITCRASQSISSWLAWYQQKPGKAPKFLIYKASRLDRGWPSRFSGSGSGTEFSLTISSLQPDDFATYYCLEYSSYIRTFGQGTKVEIK | 2010 | –
12 | one-armed (OA) mAb11-0164 (antibody, V domains shown) VH: EVQLVESGGGLVQPGRSLKLSCAASGFRFDDYAMHWVRQVPGKGLEWVSGISWKGDIGGYADSVKGRFTISRDNAKNSLYLQLNSLRAEDTALYYCVKSYGSGSFYNAFDSWGQGTLVTVSS VL: DIQMTQSPSTLSASVGDRVTITCRASQSISSWLAWYQQKPGKAPKFLIYKASRLERGTPSRFSGSGSGTEFSLTISSLQPDDFATYYCLEYSSYIRTFGQGTKVEIK | 3270 | –
13 | one-armed (OA) mAb11-0937 (antibody, V domains shown) VH: EVQLVESGGGLVQPGRSLRLSCAASGFTFHDYAMHWVRQVPGKGLEWVSGISWKGDIGGYVDSVKGRFTISRDNEKNSLYLQMNSLRAEDTALYYCVKSYGSGSFYNAFDSWGQGTLVTVSS VL: DIQMTQSPSTLSASVGDRVTITCRASQSISSWLAWYQQKPGKAPKFLIYKASRLDRGSPSRFSGSGSGTEFSLTISSLQPDDFATYYCLEYSSYIRTFGQGTKVEIK | 2680 | –
14 | one-armed (OA) mAb11-0107 (antibody, V domains shown) VH: EVQLVESGGGLVQPGRSLKLSCAASGFTFHDYAMHWVRQVPGKGLEWVSGISWRGDIGGYVKSVKGRFTISRDNAKNSLYLQLNSLRAEDTALYYCVKSYGSGSFYNAFDSWGQGTLVTVSS VL: DIQMTQSPSTLSASVGDEVTITCRASQSISSWLAWYQQKPGKAPKFLIYKAQRLDRGTPQRFSGSGSGTEFTLTISSLQPDDFATYYCLEYSSYIRTFGQGTKVEIK | 3260 | –
15 | one-armed (OA) mAb11-0049 (antibody, V domains shown) VH: EVQLVESGGGLVQPGRSLRLSCAASGFTFHDYAMHWVRQAPGKGLEWVSGISWRGDIKGYVDSVKGRFTISRDNAKNSLYLQLNSLRAEDTALYYCAKSYGSGSFYNAFDSWGQGTLVTVSS VL: DIQMTQSPSTLSASAGDRVTISCRASQSISSWLAWYQQKPGKAPKLLIYKASRLDRGTPSRFSGSGSGTEFTLTISSLQPDDFATYYCLEYNSYIRTFGQGTKVEIK | 1510 | –
16 | one-armed (OA) mAb11-0047 (antibody, V domains shown) VH: EVQLVESGGGLVQPGRSLRLSCAASGFTFHDYAMHWVRQAPGKGLEWVSGISWRGDIKGYVDSVKGRFTISRDNAKNSLYLQLNSLRAEDTALYYCAKSYGSGSFYNAFDSWGQGTLVTVSS VL: DIQMTQSPSTLSASAGDRVTITCRASKSISSWLAWYQQKPGKAPKFLIYKASRLDRGTPQRFSGSGSGTEFSLTISSLQPDDFATYYCLEYSSYIRTFGQGTKVEIK | 2860 | –
17 | one-armed (OA) mAb11-0723 (antibody, V domains shown) VH: EVQLVESGGGLVQPGRSLKLSCAASGFTFDDYAMHWVRQVPGKGLEWVSGISWKGDIGGYVDSVKGRFTISRDNAKNSLYLQLNSLRAEDTALYYCAKSYGSGSFYNAFDSWGQGTLVTVSS VL: DIQMTQSPSTLSASAGDRVTITCRASQSISSWLAWYQQKPGKAPKFLIYKASRLDRGTPSRFSGSGSGTEFSLTISSLQPDDFATYYCLEYSSYIRTFGQGTKVEIK | 3770 | –
18 | one-armed (OA) mAb11-0938 (antibody, V domains shown) VH: EVQLVESGGGLVQPGRSLRLSCAASGFTFHDYAMHWVRQVPGKGLEWVSGISWKGDIGGYVDSVKGRFTISRDNEKNSLYLQMNSLRAEDTALYYCVKSYGSGSFYNAFDSWGQGTLVTVSS VL: DIQMTQSPSTLSASVGDRVTITCRASQSISSWLAWYQQKPGKAPKFLIYKASRLDRGVPSRFSGSGSGTEFSLTISSLQPDDFATYYCLEYSSYIRTFGQGTKVEIK | 1820 | –
19 | one-armed (OA) mAb11-0935 (antibody, V domains shown) VH: EVQLVESGGGLVQPGRSLRLSCAASGFTFHDYAMHWVRQVPGKGLEWVSGISWKGDIGGYVDSVKGRFTISRDNEKNSLYLQMNSLRAEDTALYYCVKSYGSGSFYNAFDSWGQGTLVTVSS VL: DIQMTQSPSTLSASVGDRVTITCRASQSISSWLAWYQQKPGKAPKFLIYKASRLDRGQPSRFSGSGSGTEFSLTISSLQPDDFATYYCLEYSSYIRTFGQGTKVEIK | 1570 | –
20 | one-armed (OA) mAb11-0160 (antibody, V domains shown) VH: EVQLVESGGGLVQPGRSLKLSCAASGFRFDDYAMHWVRQVPGKGLEWVSGISWKGDIGGYADSVKGRFTISRDNAKNSLYLQLNSLRAEDTALYYCVKSYGSGSFYNAFDSWGQGTLVTVSS VL: DIQMTQSPSTLSASVGDEVTITCRASKSISSWLAWYQQKPGKAPRFLIYKASRLERGTPQRFSGSGSGTEFTLTIYSLQPDDFATYYCLEYSSYIRTFGQGTKVEIK | 4550 | –
